In the domain aggregation screens of Martell et al. (2025):

Assay: soluble fraction after stress (log2 fold change); higher = more stays soluble; pooled small domains, quantitative proteomics
Conditions: stress: 75 degC
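Further: 20 min heating vs room temperature control held 20 min.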

Sequence | soluble fraction (log2)
HMSKPIREVAYETLKNAIVTGEIPAGSRIVETEYAERMHISRTPLREALRKLERDGLVEYVVRRGVVVRAF | -1.63
HMSKPTLTLKSNAYPYNLNGERINNYLGFTYIKKGATLNYQGSKRINGQNYYYIGDGAYIKNTTVGSTNN | -1.23
HMSKQDRRIRRTRRLLKESLIQLMQEKEFMNISVREVTERADLNRGTFYLHYQDTRHLLQDIENETL | -3.3
HMSKQEFVDRLRVSLSGKISPASVEDNARYYEDYINTHIRLGEPEEDVLEGLGDPRLIARSIVAAESV | -0.0989
HMSKQLGFKIKTARRKLNISQGDLSKKLEISPSYLNLIESGKRKVSTDLLMKASEILNLDLKKL | -0.966
HMSKQQFLDELAARLREEGAELLVAENLNFYRSYIEEEVAKGRSEEEVLAELGNPALIARSILDAAGF | -0.219
HMSKSIELMNEIKKYIEEYYLQYRQSPSTTKIAEAVGIARGTAYKYLVEMSERNMIEYDGQEISTEVTRKY | -1.43
HMSKSKSEIDKDPHFWSSLFQRIGEGESLRKIAKDSKIPKSTLWAWIRNDPQLALRYSEAQQ | 0.0521
HMSLAATLSPREIDTVRLIAVGSSNKEIARQLGIAETTVKIHVQHILRKLNLTSRVQVAVFANAEGII | -0.931
HMSLAISGRNQLHGIIEEVRSDGLLSQIYLRVGDQVLTAVITRDAVAELKLKRGDTAVAIMKSTEVMIARE | 0.38
HMSLDLERAVALLSLPRPVGNHPEDGELVEAGIGRYGPYVKHGSKYANLPDADEVFTIGMNRAVEVLAAK | -0.109
HMSLDTASDKELLGLIVSEPIATRVLDAFRTLDATLFRTTPAELAAAAGVSSEHAQKIKAVAEIAARMLKP | -0.343
HMSLEDYVIIKNKTVKVYETEFDGAPVVTSSSVGQKLILVEYNDNFAKILYRAKDGLDYVGYIKRKDVYVR | -2.55
HMSLLLTPREASVWASEYLGKKVTSNNIIYLLNYGKIANHSTDLKENLIDKNELKIYYDSTIKSQKH | -0.755
HMSLLQDRQRHEALAALGYYRGSVSAAWGAASVEALKAAQAALGVEVDGKWGPKTEDVIQAALGT | -0.272
HMSLLQTRQRHEALAALGFFKGDVAAEWSAASTEALRAAQASLGIRVDGKWGPQTEDAIGKALAERQG | 0.0108
HMSLLTIDELSQATGVSVRTLRYYVSSGVLDKPTGETRNARYGTHHLDQVRNIKKLQEEGLTLNRILEIKK | -2.14
HMSLNHDIWVQELKEKRSGYGISQSRLAIAAGMTRQYLSDIETGKVLPSAERKAAITEALERFNPD | -0.348
HMSLNNAHNTIFPRIIELMEMKQLENVLLIGGGIIPRKDIESLESSGVTKLYGPGTPVKETIEFITNWVK | -0.216
HMSLPKVLVPTDITVSQLAKYLEVDAIAIVKKLFGLGVVASLNQRLENEQMQLLGQEFGKDIIFTEN | -1.39
HMSLPTSDWKRALSLFDEALSLPPDARDAWLAHTIAREPAVSPLLQKLLGAHRRVETNDILATLPR | -0.534
HMSLQNTMANFAGGVLVLFLKPFKAGDYIVTKDGEGTVASIGLVYTTLLTIENKRIVIPNSSISNSPITN | 0.159
HMSLRGEKTYDEAHQKLIKSAVELFKNPLVSPEKITVSQIAKHAGVSVATAYNHFPENKLDIYGSIF | -0.203
HMSLRVIEIFGTPQQMSARISLMDGSVTDVKVGQSIPGTSYKVASITGNGVWIQNGTAVSYTHL | -2.41
HMSLSDADVERLLEVAIDIESLEEREGLYYQANESEPYSGWGKLMYDSGQVERLVPYKDGRWEGLWTIW | -1.07
HMSLSISSLVFFRKNAGLTQADIATAMSITQSAVARLEKRLLSDSDVTLKTLERYAEAVGIRMHVDFEP | 0.01
HMSLSKEEFETISKQVLELAGAGPIPVKELLQKMERTSKEKAWKVIEFLQAEDKIVPDATGRIQL | -0.727
HMSLSKQETEFLTTFSASGKRVFTYQQATDYWQSKVAATNVLGRLVRKGWLQRLERGLYMIIPLEAGPERF | -1.71

Sequence | soluble fraction (log2)
HMSLSPAATRSRGYPSVLLTMKAPERLVSAAGPDRRAYLVGTDPLVIELPGVKGLYKVDPDQIVFE | -0.0024
HMSLTEEQVDSGLKEIRLALLEADVALPVVKNFITNIKPKAIGQEIIRSTSPGQMIVKIVYDELVSIL | -0.066
HMSLTEESAKSLIGLTENEAVKVAAERGWTVRVAMRDGEAFMLTQDYSENRVNLTVMKTLVTAVTI | -3.32
HMSLTMPKLIGMHLFQAERTLNYYGFQYKVEGPDSASVVIDQYPKEGVTVDPHYPITLKIGPSA | -2.18
HMSLYGGYEIDIIKEEVVDAGIKLLRRRVIVADQRGISVYEGKPTFASDDQVLIKEGQYQIDKLG | -2.46
HMSMHVHTPNPDFKPSNTNALQEGQLVEHPKFGFGKVQKIETEGLNKKASIQFEHFGEKTLLLSFAKLRII | -1.47
HMSMLGTEQRVLVLGPARKGEGFLMARTDNNRIVNFEGPLSLVDTMVRVKVTDVYPHSLGGQLL | -1.51
HMSMPDERMLTSWMMARVKAAGKTMTRDAWNEFFERSNDSMDHMDMEMEKLLSYVYDKDGITLEDVEA | -0.223
HMSMQIILLDKVVNLGGLGDVVKVKDGYARNYLIPQGKAKRANTANLAEFEARRVELERLAAEQLAQAQA | -0.0666
HMSMRIDTNTLNYYVQNAQISLSVLRTKINNLDQFLSGEKQPTFNQLSEIAKKINVPTGLLLLNKS | -2.17
HMSMSKISNLLEIMMIIQYKGLTTASELAQSLGVDKKTVYRYINSLSKANIPIYTKKGRYGGFYIDKNF | -1.29
HMSMSTVGERIKKKRKNLNFTQQELAAKLNISAQAVSKWENGVALPDLGLMPKLAQVLESTVDGLLGYQGA | -0.756
HMSMTLSVLDDVRGLSESRRKQLFHSFGSIKKLREQSKETLMSIPYLPEKVALELYDKLHEE | -0.243
HMSMVGSVNKQGRPFALLRVDNLLYQVKVGDYLGQNYGRITQIDETQIALREIVQDAAGEWIERPGVLQL | 0.294
HMSNATELVYDDGRKLLISYETLVGGYHPDLGWIRTAKTYSISTDKHIRNYFNNVTNPRVVGEDILETLKI | 0.109
HMSNDRSYLARLQDYYAEHRALPSYASIGALLGLRSKSSVAALVARLKLAGFVESTPDRRLAPTRRFF | -4.01
HMSNEWIEISAKTVDDAINEGLIRLGTTTDKMDVEVLEKESAGFLGFIGKHDAKIRVRFKEV | -0.0738
HMSNGYVTAKTTVNVRKSASESGERLGVIYQGDKLELVMNQADGWTKVKYKGQTAYVKSEFM | -1.27
HMSNHYETLGVPRDASQEDIKRAYRRLARKLHPDVAGPGKAEEFKAVNEAYAVLSDEESRRMYDLGGDDAL | 0.157
HMSNIQLVENLYRLRKAHHYTQQEISDLLNISRQAYSNYETSKRTPDLDSLMRLADIYGVSLDQLVNHP | -1.93
HMSNLENSLNESLSLLKSNKYNEALEILKKIEIEDSRVFFLLGTIYSVMKNINLGEEFLIKASK | -1.64
HMSNLGLQIVRTLTDAGKGVVFITHKLKEALTIADRINVLRRGKVVGDADPKTASESQIAEMMVGRPVQL | -0.0755
HMSNMWVWSKLSGIQWMDAWEDRFHGNPNTVITRLKTNKTVRVEVYTETEQEALDIKKLFGGSIRKLV | -3.09
HMSNRFIQFRQRAIDWLNSDRDFNAGILLLEESGFKPGVVAKLKRHGVNGPEAKKRLKFLINELVKAWA | -1.2
HMSNVKVYPNPTSGKLTIDAENYKGVEVYDTSGRLIVKSELRTIDLEEQSKGLYLLKVNANGTTQEFKVFK | -0.0433
HMSNYLKSVEVFDPITNKWSYVSAMKVRRGYVAVVATMDRLYAIGGYDGENYLSTVEMYNPDTN | 0.108
HMSPAVSLITGKLGAETYYKQGLKKAKEKDYEGALDDLIKAYEFFPDKKIKTQVDKLASFLGKPPIL | -0.259
